One data set has as its target T1, LiaR^N (RD of LiaR) (Bacillus subtilis, UniProt O32197).
T1 construct: receiver domain, tagless, Gly-131 codon changed to stop (residues 1-130); pET26b, E. coli BL21(DE3); calculated mass 14,029 (printed as kD)
As to the kind of experiment: phosphorylation by acetyl phosphate. Type of data set: biochemical. Particulars: covalent phosphorylation of the stand-alone receiver domain.

The target of data set [1] is T2, LiaS (GST-LiaS, liaS^126) (Bacillus subtilis, UniProt O32198).
T2 construct: cytoplasmic domain, residues 126-360 (TM and HAMP removed), fused to C-terminus of GST; pGEX-4T-1, E. coli BL21(DE3); calculated mass 52,431 (printed as kD)
T2 sequence (O32198 126-360): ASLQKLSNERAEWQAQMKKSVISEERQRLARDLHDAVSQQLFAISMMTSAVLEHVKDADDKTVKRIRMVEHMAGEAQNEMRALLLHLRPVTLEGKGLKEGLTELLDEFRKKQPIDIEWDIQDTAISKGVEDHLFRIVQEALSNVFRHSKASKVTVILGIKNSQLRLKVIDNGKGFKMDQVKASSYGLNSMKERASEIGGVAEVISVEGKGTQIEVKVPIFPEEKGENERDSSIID
Description: autophosphorylation, […] incorporation by SDS-PAGE phosphorimaging, kobs against ATP. Type of data set: biochemical. As to conditions: labelled compound; pH 7.4, 50 mM KCl, 5 mM MgCl2, 10 mM CaCl2, 25 °C; 5 μM LiaS; 10-250 μM ATP; apparent dissociation constant from kinetics; read-out: KS.

Data set [2] has as its system LiaRC (effector domain) (Bacillus subtilis 168). Description: EMSA. As to conditions: 5 mM Mg2+; EMSA: 10 mM Tris pH 7.5, 50 mM KCl, 1 mM DTT, 5 mM MgCl2, 10 ng herring sperm DNA, 2.5% glycerol, 25 C, 30 min, 9% native PAGE; footprinting as in ref 35. Background: Mobility shift assays separate free from complexed probe on a gel.
For data set [3], the system named is LiaR (Bacillus subtilis 168). As to the kind of experiment: EMSA. Particulars: 5 mM Mg2+; unphosphorylated; EMSA: 10 mM Tris pH 7.5, 50 mM KCl, 1 mM DTT, 5 mM MgCl2, 10 ng herring sperm DNA, 2.5% glycerol, 25 C, 30 min, 9% native PAGE; footprinting as in ref 35.
Data set [4] deals with T3, LiaR (Bacillus subtilis 168) (UniProt O32197).
T3 sequence: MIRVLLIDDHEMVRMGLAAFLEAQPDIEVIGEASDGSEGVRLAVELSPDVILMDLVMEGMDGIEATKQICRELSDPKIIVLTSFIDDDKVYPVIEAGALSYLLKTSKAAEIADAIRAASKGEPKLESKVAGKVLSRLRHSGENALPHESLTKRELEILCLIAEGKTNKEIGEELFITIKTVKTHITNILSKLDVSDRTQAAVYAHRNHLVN
As to the kind of experiment: EMSA. As to conditions: EMSA: 10 mM Tris pH 7.5, 50 mM KCl, 1 mM DTT, 5 mM MgCl2, 10 ng herring sperm DNA, 2.5% glycerol, 25 C, 30 min, 9% native PAGE; footprinting as in ref 35.

In data set [5] the target is T4, LiaRC (effector domain) (Bacillus subtilis 168) (UniProt O32197).
T4 sequence: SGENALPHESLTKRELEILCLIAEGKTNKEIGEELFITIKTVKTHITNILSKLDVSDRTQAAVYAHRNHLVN
Description: EMSA. Particulars: EMSA: 10 mM Tris pH 7.5, 50 mM KCl, 1 mM DTT, 5 mM MgCl2, 10 ng herring sperm DNA, 2.5% glycerol, 25 C, 30 min, 9% native PAGE; footprinting as in ref 35.

Data set [6] concerns the target T3, LiaR (Bacillus subtilis 168). Description: DNase I footprinting. As to conditions: EMSA: 10 mM Tris pH 7.5, 50 mM KCl, 1 mM DTT, 5 mM MgCl2, 10 ng herring sperm DNA, 2.5% glycerol, 25 C, 30 min, 9% native PAGE; footprinting as in ref 35.
Data set [7] concerns the target T5, VraR (Staphylococcus aureus) (UniProt Q7A2Q1).
T5 sequence: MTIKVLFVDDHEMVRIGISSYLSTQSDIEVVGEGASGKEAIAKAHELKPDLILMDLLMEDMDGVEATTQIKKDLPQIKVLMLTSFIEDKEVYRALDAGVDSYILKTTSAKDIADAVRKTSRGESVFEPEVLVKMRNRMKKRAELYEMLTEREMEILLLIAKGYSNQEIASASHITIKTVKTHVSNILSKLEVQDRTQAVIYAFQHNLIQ
As to the kind of experiment: DNase I footprinting. Particulars: EMSA: 10 mM Tris pH 7.5, 50 mM KCl, 1 mM DTT, 5 mM MgCl2, 10 ng herring sperm DNA, 2.5% glycerol, 25 C, 30 min, 9% native PAGE; footprinting as in ref 35.

The data set “native-PAGE” concerns the molecule itself. Description: native-PAGE.

Regarding `CC(=O)OP(=O)(O)O` [acetyl phosphate], on LiaR^N (RD of LiaR), the “phosphorylation by acetyl phosphate” value is on record as “RD of LiaR also underwent phosphorylation by acetyl phosphate”.

Consider `Nc1ncnc2c1ncn2[C@@H]1O[C@H](COP(=O)(O)OP(=O)(O)OP(=O)(O)O)[C@@H](O)[C@H]1O` [ATP], for which the Kd in data set [1] is 7 ± 1 µM.

On to PliaI (-162 to +31), for which the Kd in [2] worked out at 20 µM; in data set [3] it was 0.2 µM.

Consider “TTCATGCAGATCCTCCTTTCGTTTTCCTTGTCTTCATCTTATACAAGTTGGAAGATATGCAAAACGAATCAGAGATTGATTTTTATATAAGACCGGAGTCGTATCTCGCACCGGACCCATTGGCACAAAAAAACGCCATGCACGAGGCATGGCGTTTTAAAACCCTTTACAGATGAACACTTGCTTCCCTTTC (double strand) [PliaI (-162 to +31)]”, for which the Kd in [4] came to 0.2 µM; in data set [5], 20 µM. The binding result in [6] and in data set [7] was “binds” in each case.

B1: LiaR 1-211 (protein)
chain: T3 sequence
Turning to B1, in the data set “native-PAGE”, the Kd was over 20 µM.

These data come from PMC7191749, “Low phosphatase activity of LiaS and strong LiaR-DNA affinity explain the unusual LiaS to LiaR in vivo stoichiometry” (BMC Microbiology, 2020).
